Experimental data from publication PMC10665427, “The heat shock protein LarA activates the Lon protease in response to proteotoxic stress” (Nature Communications, 2023).
Blank lines part the entries; values can stand above or below the molecule they belong to.

Key:
Lon-His (C. crescentus) [1] = molecular target: Lon-His (C. crescentus) (UniProt B8GX12)
[2] = molecular target: Lon^EQ (Lon E420Q, Walker-B mutant) (C. crescentus) (UniProt B8GX12); experiment: native MS; purified proteins buffer exchanged into 200 mM ammonium acetate pH 8.0, mixed in equimolar ratios (LarA also in 3-fold excess); nano ESI, Waters Synapt G2, source temperature 30 °C
Lon-His (C. crescentus) [3] = molecular target: Lon-His (C. crescentus) (UniProt B8GX12); remark: listed apart in the source
[4] = molecular target: the molecule itself; experiment: native MS; purified proteins buffer exchanged into 200 mM ammonium acetate pH 8.0, mixed in equimolar ratios (LarA also in 3-fold excess); nano ESI, Waters Synapt G2, source temperature 30 °C

Km of Lon-mediated His-SciP degradation in vitro, in the presence of 2 µM LarA (0.05 µM Lon-His hexamer) (Lon-His (C. crescentus) [1]): 1.8 µM | Km of Lon-mediated His-SciP degradation in vitro, without LarA (0.05 µM Lon-His hexamer) (Lon-His (C. crescentus) [1]): 9.3 µM
Molecule: 6xHis-tagged SciP (natural protein)

stoichiometry N (LarA molecules per Lon^EQ hexamer) [2]: 6 | rate of Lon-mediated His-SciP degradation against LarA concentration (0 to 15 µM), highest at 2 µM LarA, compared with reactions lacking LarA (Lon-His (C. crescentus) [3]): 5.5 fold
Molecule: LarA, purified (natural protein)

B1: Lon^EQ (Lon E420Q, Walker-B mutant) (enzyme, C. crescentus, UniProt B8GX12 1-799, looked up)
chain: MSELRTLPVLPLRDIVVFPHMVVPLFVGRDKSVRALEEVMRGDKQILLVTQKNSADDDPAPGDIFEVGVLATVLQLLKLPDGTVKVLVEGKARAAVVSFTDQESYYEAQIGEVSEDDGAGPEAEALSRAVVEQFENYVKLNKKVPPEALASIPQIAEPGKLADSIAAHLSVKIGDKQNLLEIFDVVKRLEKVFALMEGEISVLQVEKKIRSRVKRQMEKTQREYYLNEQMKAIQRELGDPDDARDELIDLEKRIKKTKLSKEARTKAESELKKLRNMSPMSAESTVVRNYLDWLLSIPWGKAKTKKIDLVESEGILDADHYGLEKVKERILEYLAVQARTNSLKGPILCLVGPPGVGKTSLGKSIAKATGREFVRMSLGGVRDEAEIRGHRRTYIGSMPGKVVQSMKKAKTTNAFVLLDQIDKMGSDYRGDPASALLEVLDPSQNSTFGDHYLEVDYDLSQVMFVTTANSLNMPQPLLDRMEIIRIPGYTEDEKLEIAKRHILPKLAKDHGLKPAEFIVPDKAIRDLIRYYTREAGVRSLERELGALARKTVRDLAREKVASITIDDERLAKYAGVKKYRYGETDEVDQVGIVTGLAWTEFGGDILTIEAVKMPGKGRMQITGNLKDVMKESIAAANSYVRSRALQFGIKPPVFEKTDVHIHVPDGATPKDGPSAGIAMALAMVSVLTGIPIRKDIAMTGEITLRGRVTAIGGLKEKLLAALRSGVKTVLIPQENEKDLADVPQTVKDGLEIIPVSTVDEVLKHALTGPLTPVEWNEAEEPITTSAKKDDGDSDAMLTH
notes: predicted molecular weight of the hexamer 529,458 Da; Deficient in ATP hydrolysis; source: E. coli BL21-SI/pCodonPlus, purified (Talon, Ulp1 cleavage, anion exchange)
stoichiometry N [4]: 6
